Measured values from patent US6855495B1, “Toso as a target for drug screening” (Rigel Pharmaceuticals, Inc., priority 1998, dated 2005).
Where two headings read alike, the source gives them in different places.

Legend:
[1] = Gamen et al. 1996; cited from earlier work
caspase-8 = experiment: Western blot of caspase-8 processing after Fas activation; assay type: cell-based, human; details: 50 ng/ml anti-Fas mAb, 6 hours, versus control Jurkat.ecoR cells
Procedure: The effect of overexpression of Toso on processing of caspase-8, which associates with FADD, was evaluated. […] To detect caspase-8, whole-cell lysates (2×10^6 cells per lane) were resolved by SDS-PAGE, transferred to an membrane and processed with goat anti-Mch5 p20 antibody (Santa Cruz Biotechnology, Inc., Santa Cruz, Calif. 95060, U.S.A.) as described above.

Jurkat.ecoR cells [2] = experiment: PMA/Ionomycin-induced apoptosis in Jurkat.ecoR clones; assay type: cell-based, human; details: five pBabeMN-Toso-infected clones; 10 ng/ml PMA and 500 ng/ml Ionomycin, 24 hours
Text: However, following activation with PMA/lonomycin one third of Jurkat cells were clearly resistant to anti-Fas mAb induced apoptosis.
We further tested whether Toso expression could rescue activation-induced programmed cell death. We randomly picked five pBabeMN-Toso-infected Fas resistant Jurkat T cell clones and used these to assay the inhibitory effect of Toso on PMA/lonomycin-induced apoptosis.

cFLIP = experiment: semi-quantitative RT-PCR of cFLIP mRNA expression; assay type: cell-based, human; details: Jurkat.ecoR cells
Text: Recently several groups have reported cFLIP is a caspase-8 inhibitor. We performed semi-quantitative RT-PCR to detect […] expression. To detect […] expression, a 1.1 kbp fragment (998-2061) of the cFLIP gene (U97074) was amplified with primers 5'-[NT] ID NO:32) and 5'-[NT] ID NO:33) for 35 cycles as described above. The sequence of the 1.1 kbp PCR product was verified using cycle sequencing ready reaction kit (Perkin Elmer, Calif. 94404, U.S.A.).

Jurkat.ecoR cells [3] = experiment: staurosporine- and ceramide-induced apoptosis in Jurkat.ecoR cells; assay type: cell-based, human; details: 24 hours, any concentration
Procedure: Jurkat cells that express the receptor for ecotropic murine retroviruses (“Jurkat.ecoR”) were infected with retroviruses that express Toso and control vectors, pBabeMN-Toso, pBabeMN-lacZ and pBabeMN-Lyt-2-α′(α′ form of mouse CD8α chain) (Tagawa, et al. (1986)). Jurkat.ecOR cells were infected with pBabeMN-lacZ, pBabeMN-Lyt-2-α′, and pBabeMN-Toso. At 72 hours postinfection, infection frequency of pBabeMN-lacZ and pBabeMN-Lyt-2α′ were determined to be 45% and 58%, respectively. Jurkat cells were then cultured with 10 ng/ml anti-Fas mAb for 24 hours. After 12 or 24 hours, the cells were stained with 100 μg/ml ethidium bromide (SIGMA) and 100 μg/ml acridine orange (SIGMA). […]
Staurosporine is a bacterial alkaloid that is a broad spectrum inhibitor of protein kineses (Tamaoki and Nakano, Biotechnology, 8:732-735 (1990)) and induces programmed cell death in various cell lines and dissociated primary cells in culture (Ishizaki, et al, J. Cell Biol., 121:899-908 (1993); Jacobson, et al., Nature, 361:365-369 (1993); Raff, et al., Science. 262:695-700 (1993)). Ceramide generation is implicated in a signal transduction pathway that mediates programmed cell death induced by Fas and TNF-α (Cifone, et al., J. Exp. Med., 180:1547-1552 (1994); Obeid, et al., Science, 259:1769-1771 (1993)). pBabeMN-LacZ infected cells were counted by microscopic observation; infection frequency was determined to be 57%. […]

Jurkat.ecoR cells [4] = experiment: TNF-α-induced apoptosis in Jurkat.ecoR cells; assay type: cell-based, human; details: 1 μg/ml TNF-α with 0.1 μg/ml CHX, 12 hours, versus Lyt-2-α′
Procedure: The Fas receptor has homology to the TNF-α receptor, and these two receptors share analogous signaling systems as well as several intracellular mediators (Hsu, et al., Cell, 84:299-308 (1996)). The protective effect of Toso against TNF-α-induced apoptosis was tested by culturing Jurkat.ecOR cells expressing Lyt-2-α′ or Toso with 10 ng/ml of anti-Fas mAb or 1 μg/ml of TNF-α in the presence of 0.1 μg/ml of cyclohexamide (CHX) for 12 hours and apoptotic cells were counted. The infection frequency of pBabeMN-Lyt-2-α′ was determined to be 58%. […] Thus the TNF-α and Fas signaling pathways may converge at a common point that can be inhibited by Toso.

Jurkat.ecoR cells [5] = experiment: FADD-induced apoptosis in Jurkat.ecoR cells; assay type: cell-based, human; details: 24 hours postinfection with pBabeMN-FADD
Procedure: Fas-mediated apoptosis is activated through FADD. For FADD-induced apoptosis, mouse FADD (a gift from Dr. Angeles Estelles, Dept. Mol. Pharm., Stanford Univ.) was ligated into pBabeMN retroviral vector. Jurkat.ecoR cells expressing Lyt-2-α′ or Toso were infected with pBabeMN-LacZ or pBabeMN-FADD. After 24 hours infection with FADD, the cells were stained with ethidium bromide and acridine orange and counted the apoptotic cells. The effect of Toso on FADD-induced apoptosis was investigated by infecting Jurkat.ecoR cells expressing Lyt-2-α′ or Toso, with pBabeMN-LacZ or pBabeMN-FADD. The reinfection efficiency was approximately 40% using pBabeMN-LacZ. Jurkat.ecoR cells were infected with pBabeMN-Lyt-2-α′ and pBabeMN-Toso. Infection frequency of pBabeMN-Lyt-2-α′ was determined to be 72%. Jurkat.ecoR cells expressing Lyt-2-α′ or Toso were infected with pBabeMNLacZ or pBabeMN-FADD and apoptotic cells were counted at 24 hourrs postinfection. Infection frequency of pBabeMN-lacZ in Jurkat.ecoR cells expressing Lyt-2-α′ and Toso was determined to be 39% and 43%, respectively.

Bcl-2 and Bcl XL = experiment: Western blot of Bcl-2 and Bcl XL expression levels in Toso expressing cells; assay type: cell-based, human; details: data not shown
Procedure: The downstream effects of Toso on known inhibitors of apoptosis, were evaluated by western blot analysis of Bcl-2 and BCI XL expression levels in Toso expressing cells. Bcl-2 overexpression can block Fas-induced apoptosis as well as staurosporine-induced apoptosis (data not shown). No change in the levels of expression of Bcl-2 or BcI XL was observed by Western blot (data not shown).

human cell lines = experiment: anti-Fas mAb-induced apoptosis in several human cell lines overexpressing Toso; assay type: cell-based; details: data not shown
Text: Toso was expressed in several human cell lines including Jurkat cells, CemT4 cells (human T cell leukemia), SupT1 cells (human T cell leukemia, a kind gift from Dr. Cleary, M. L., Stanford Univ.), Oli-Ly8 cells (human B cell line; transformed with EBV), AMK cells (human B cell line; transformed with EBV), both a gift from Dr. Negrin, R. S., Stanford Univ., Reh cells (acute lymphocytic leukemia; non T; non B), HL-60 cells (promyelocytic leukemia) and HepG2 cells (hepatoma) using pBabeMN-Toso IRES neo to allow cotranslational selection with Geneticin (GIBCO BRL).

Jurkat.ecoR cells [6] = experiment: anti-Fas mAb-induced apoptosis in Jurkat.ecoR cells expressing the construct; assay type: cell-based, human; details: for anti-Fas mAb-induced apoptosis: 10 ng/ml anti-Fas mAb, 24 hours, in words
Procedure: Jurkat cells that express the receptor for ecotropic murine retroviruses (“Jurkat.ecoR”) were infected with retroviruses that express Toso and control vectors, pBabeMN-Toso, pBabeMN-lacZ and pBabeMN-Lyt-2-α′(α′ form of mouse CD8α chain) (Tagawa, et al. (1986)). Jurkat.ecOR cells were infected with pBabeMN-lacZ, pBabeMN-Lyt-2-α′, and pBabeMN-Toso. At 72 hours postinfection, infection frequency of pBabeMN-lacZ and pBabeMN-Lyt-2α′ were determined to be 45% and 58%, respectively. Jurkat cells were then cultured with 10 ng/ml anti-Fas mAb for 24 hours. After 12 or 24 hours, the cells were stained with 100 μg/ml ethidium bromide (SIGMA) and 100 μg/ml acridine orange (SIGMA). Apoptotic cells and non-apoptotic cells were identified with UV microscopy as described (MacGahon, et al., The End of the (Cell) Line: Methods for the Study of Apoptosis in vitro, in Methods in cell biology, L. J. Schwartz and B. A. Osborne, eds., San Diego, Calif., Academic Press, Inc., pp. 172-173 (1995)).
Jurkat.ecOR cells were infected with pBabeMN-Lyt-2-α′. HA, pBabeMN-Toso. HA, pBabeMN-TosoΔ(377-390). HA, pBabeMN-TosoΔ(334-390). HA, pBabeMN-TosoΔ(281-390).HA, pBabeMNTosoΔ(252-390).HA and pBabeMN-TosoΔ(29-187).HA. Jurkat cells were cultured with 10 ng/ml anti-Fas mAb for 24 hours and apoptotic cells were counted. […] Deletions of regions of the cytoplasmic domain of Toso from 334 to 390 still inhibited apoptosis. Moreover, a deletion of Toso lacking the entire cytoplasmic domain still retained substantial anti-apoptotic ability. Thus, the cytoplasmic domain of Toso is not absolutely required for the anti-apoptotic effects on Fas antibody-stimulated cells.

Q: Which ceramide-induced apoptosis [1] does the source give for DEVD-CHO here?
A: does not inhibit

Q: With “Lyt-2: full length Lyt-2 (mouse CD8α), control [reference compound]” as the molecule, how does the “massive / rapid cell death in 70Z/3 cells” value (70Z/3 cells; after retroviral infection, in words) read?
A: did not induce rapid cell death

B1: Toso: novel 390-amino acid Ig superfamily type 1 membrane protein (SEQ ID NO:2), expressed from retroviral vector pBabeMN (protein, listed as Homo sapiens)
chain: MDRWLWPLYFLPVSGALRILPEVKVEGELGGSVTIKCPLPEMHVRIYLCREMAGSGTCGTVVSTTNFIKAEYKGRVTLKQYPRKNLFLVEVTQLTESDSGVYACGAGMNTDRGKTQKVTLNVHSEYEPSWEEQPMPETPKWFHLPYLFQMPAYASSSKFVTRVTTPAQRGKVPPVHHSSPTTQITHRPRVSRASSVAGDKPRTFLPSTTASKISALEGLLKPQTPSYNHHTRLHRQRALDYGSQSGREGQGFHILIPTILGLFLLALLGLVVKRAVERRKALSRRARRLAVRMRALESSQRPRGSPRPRSQNNIYSACPRRARGADAAGTGEAPVPGPGAPLPPAPLQVSESPWLHAPSLKTSCEYVSLYHQPAAMMEDSDSDDYINVPA
Q: For B1, which “processed form (p20) of FLICE after Fas activation” value (caspase-8) is on record?
A: greatly reduced

Q: What about the PMA/Ionomycin-induced apoptosis (Jurkat.ecoR cells [2]) of the same molecule?
A: significant resistance

Q: What about the cFLIP expression (cFLIP) of the same molecule?
A: induced

Q: What about the “dead cells after infection” value (70Z/3 cells; 70Z/3 cells infected with pBabeMN-Toso) of the same molecule?
A: about 70%

Q: And the ceramide-induced apoptosis (Jurkat.ecoR cells [3])?
A: not resistant

Q: What about the staurosporine-induced apoptosis (Jurkat.ecoR cells [3]) of the same molecule?
A: not resistant

Q: What about the TNF-α-induced apoptosis (Jurkat.ecoR cells [4]) of the same molecule?
A: protected against TNF-α-induced apoptosis

Q: What about the “FADD-induced apoptosis in cells constitutively expressing the construct” value (Jurkat.ecoR cells [5]) of the same molecule?
A: failed to induce apoptosis

Q: What about the “levels of expression of Bcl-2 or Bcl XL” value (Bcl-2 and Bcl XL) of the same molecule?
A: No change

Q: What about the “apoptosis induced by anti-Fas mAb” value (human cell lines; all human T cell lines and B cell line Ocl-Ly8) of the same molecule?
A: inhibited

Q: What about the “protection against Fas-induced apoptosis” value (human cell lines; the other cell lines) of the same molecule?
A: no significant protection

Q: What about the “Fas induced apoptosis in the presence of CHX” value (Jurkat.ecoR cells [6]; 10 ng/ml anti-Fas mAb with 0.1 μg/ml CHX, 12 hours) of the same molecule?
A: inhibited Fas induced apoptosis

Q: What about the “anti-Fas mAb-induced apoptosis” value (Jurkat.ecoR cells [6]) of the same molecule?
A: resistant to Fas-mediated apoptosis over a range of antiFas dilutions

Q: What about the “surviving Jurkat cells that expressed GFP” value (Jurkat.ecoR cells [6]; pBabeMN-Toso-IRES-GFP-infected cells, five days with 50 ng/ml anti-Fas mAb) of the same molecule?
A: 99.7%

B2: 4.8.HA: full-length Toso with C-terminal influenza hemagglutinin (HA) tag (protein)
chain: RILPEVKVEGELGGSVTIKCPLPEMHVRIYLCREMAGSGTCGTVVSTTNFIKAEYKGRVTLKQYPRKNLFLVEVTQLTESDSGVYACGAGMNTDRGKTQKVTLNVHSEYEPSWEEQPMPETPKWFHLPYLFQMPAYASSSKFVTRVTTPAQRGKVPPVHHSSPTTQITHRPRVSRASSVAGDKPRTFLPSTTASKISALEGLLKPQTPSYNHHTRLHRQRALDYGSQSGREGQGFHILIPTILGLFLLALLGLVVKRAVERRKALSRRARRLAVRMRALESSQRPRGSPRPRSQNNIYSACPRRARGADAAGTGEAPVPGPGAPLPPAPLQVSESPWLHAPSLKTSCEYVSLYHQPAAMMEDSDSDDYINVPA
modifications: left off: small tags and cut ends
notes: full-length Toso with C-terminal influenza hemagglutinin (HA) tag
Q: For B2, which “% Viable Cells” value (70Z/3 cells) is on record?
A: 30 ± 4%

Q: What about the “massive / rapid cell death in 70Z/3 cells” value (70Z/3 cells) of the same molecule?
A: massive cell death was observed

Q: And the “anti-Fas mAb-induced apoptosis” value (Jurkat.ecoR cells [6])?
A: markedly inhibited

B3: FADD: mouse FADD expressed from the pBabeMN retroviral vector, apoptosis inducer (protein, UniProt Q61160 1-205, looked up)
FAS-associated death domain …: MDPFLVLLHSLSGSLSGNDLMELKFLCRERVSKRKLERVQSGLDLFTVLLEQNDLERGHTGLLRELLASLRRHDLLQRLDDFEAGTATAAPPGEADLQVAFDIVCDNVGRDWKRLARELKVSEAKMDGIEEKYPRSLSERVRESLKVWKNAEKKNASVAGLVKALRTCRLNLVADLVEEAQESVSKSENMSPVLRDSTVSSSETP
Q: With B3 as the molecule, how does the “apoptosis induced in control Jurkat cells” value (Jurkat.ecoR cells [5]) read?
A: 45%
